Laboratory results from US20090192112A1 (REGENTS OF THE UNIVERSITY OF MICHIGAN, published 2009).

Legend:
β-catenin = molecular target: T1, β-catenin (human, UniProt P35222 2-781); experiment: co-IP with β-catenin antibody, anti-ATDC western blot, BxPC3 lysate
T1 construct: Endogenous protein in cell lysate; also called beta-catenin
T1 sequence (looked up): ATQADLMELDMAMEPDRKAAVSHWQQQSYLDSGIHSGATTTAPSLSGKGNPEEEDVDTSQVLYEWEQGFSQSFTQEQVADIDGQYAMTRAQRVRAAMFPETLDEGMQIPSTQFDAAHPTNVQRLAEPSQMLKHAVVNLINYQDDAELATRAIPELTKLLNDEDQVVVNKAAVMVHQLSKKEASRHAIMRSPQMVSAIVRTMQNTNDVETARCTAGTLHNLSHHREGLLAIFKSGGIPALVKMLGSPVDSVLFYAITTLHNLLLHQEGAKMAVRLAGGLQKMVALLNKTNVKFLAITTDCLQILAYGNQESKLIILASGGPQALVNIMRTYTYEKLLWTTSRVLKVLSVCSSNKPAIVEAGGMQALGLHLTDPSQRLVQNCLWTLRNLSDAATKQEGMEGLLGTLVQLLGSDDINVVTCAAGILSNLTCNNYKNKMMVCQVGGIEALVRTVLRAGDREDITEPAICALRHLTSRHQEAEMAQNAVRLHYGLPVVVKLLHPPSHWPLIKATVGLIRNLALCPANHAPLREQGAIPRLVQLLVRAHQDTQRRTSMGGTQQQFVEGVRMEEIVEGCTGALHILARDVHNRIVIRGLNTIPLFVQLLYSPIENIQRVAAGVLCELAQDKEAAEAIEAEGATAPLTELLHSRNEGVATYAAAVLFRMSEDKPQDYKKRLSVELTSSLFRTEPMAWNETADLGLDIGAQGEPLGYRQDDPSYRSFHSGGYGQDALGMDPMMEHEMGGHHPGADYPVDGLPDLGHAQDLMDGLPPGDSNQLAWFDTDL
Protocol: HEK 293 cells with or without stable transfection of ATDC and BxPC-3 cells were lysed by sonicating for 5 sec in 1 ml of detergent free lysis buffer (PBS, 5 mM EDTA, 0.02% sodium azide, 10 mM iodoacetamide, 1 mM PMSF and 2 μg leupeptin) at 4° C. […] Antibody conjugated beads were prepared by combining 1 μg of polyclonal antibodies with 30 μl of a 50% protein A-Sepharose bead slurry in 0.5 ml of ice-cold PBS for 1 hr at 4° C. in a tube rotator and then were washed two times with 1 ml of lysis buffer. The antibodies used for co-immunoprecipitation were: Dvl-2, β-catenin (Cell Signaling Technology, Beverly, Mass.), axin, and GSK3β (Upstate, Temecula, Calif.). Cell lysates (500 μg) was incubated with the prepared beads and 10 μl of 10% BSA overnight at 4° C. The beads were washed four times with washing buffer (50 mM Tris-Hcl [pH 7.4], 300 mM NaCl, 5 mM EDTA, 0.02% sodium azide, 0.1% Triton X-100) and one time with ice-cold PBS. […] Images were visualized using an ECL detection system.
To ascertain the mechanism by which ATDC stabilizes β-catenin, it was first examined whether ATDC interacts with the components of the multi-protein complex that regulates β-catenin stability.

disheveled-1 (Dvl-1) = molecular target: T2, disheveled-1 (Dvl-1) (human, UniProt O14640 1-695, limits assumed); experiment: co-IP, BxPC3 lysate
T2 construct: Endogenous protein in cell lysate
T2 sequence (looked up): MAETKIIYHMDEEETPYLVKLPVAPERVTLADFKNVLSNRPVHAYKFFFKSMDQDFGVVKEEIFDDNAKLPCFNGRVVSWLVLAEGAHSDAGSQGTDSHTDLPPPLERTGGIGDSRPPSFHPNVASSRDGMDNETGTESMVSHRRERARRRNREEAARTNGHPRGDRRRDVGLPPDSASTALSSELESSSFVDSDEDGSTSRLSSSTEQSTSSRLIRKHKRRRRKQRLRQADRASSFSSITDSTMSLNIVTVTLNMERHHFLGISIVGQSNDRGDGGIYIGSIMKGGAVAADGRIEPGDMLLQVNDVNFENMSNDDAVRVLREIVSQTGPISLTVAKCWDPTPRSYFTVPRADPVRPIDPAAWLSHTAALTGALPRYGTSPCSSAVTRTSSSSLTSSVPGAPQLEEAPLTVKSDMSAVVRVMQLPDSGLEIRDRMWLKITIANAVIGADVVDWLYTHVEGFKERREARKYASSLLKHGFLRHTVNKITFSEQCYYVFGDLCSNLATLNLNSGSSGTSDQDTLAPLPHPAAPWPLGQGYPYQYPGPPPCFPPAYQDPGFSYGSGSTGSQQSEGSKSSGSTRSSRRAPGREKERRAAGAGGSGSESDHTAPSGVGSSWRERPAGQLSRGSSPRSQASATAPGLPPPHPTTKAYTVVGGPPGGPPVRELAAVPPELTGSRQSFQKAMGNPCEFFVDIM

disheveled-3 (Dvl-3) = molecular target: T3, disheveled-3 (Dvl-3) (human, UniProt Q92997 1-716, limits assumed); experiment: co-IP, BxPC3 lysate
T3 construct: Endogenous protein in cell lysate
T3 sequence (looked up): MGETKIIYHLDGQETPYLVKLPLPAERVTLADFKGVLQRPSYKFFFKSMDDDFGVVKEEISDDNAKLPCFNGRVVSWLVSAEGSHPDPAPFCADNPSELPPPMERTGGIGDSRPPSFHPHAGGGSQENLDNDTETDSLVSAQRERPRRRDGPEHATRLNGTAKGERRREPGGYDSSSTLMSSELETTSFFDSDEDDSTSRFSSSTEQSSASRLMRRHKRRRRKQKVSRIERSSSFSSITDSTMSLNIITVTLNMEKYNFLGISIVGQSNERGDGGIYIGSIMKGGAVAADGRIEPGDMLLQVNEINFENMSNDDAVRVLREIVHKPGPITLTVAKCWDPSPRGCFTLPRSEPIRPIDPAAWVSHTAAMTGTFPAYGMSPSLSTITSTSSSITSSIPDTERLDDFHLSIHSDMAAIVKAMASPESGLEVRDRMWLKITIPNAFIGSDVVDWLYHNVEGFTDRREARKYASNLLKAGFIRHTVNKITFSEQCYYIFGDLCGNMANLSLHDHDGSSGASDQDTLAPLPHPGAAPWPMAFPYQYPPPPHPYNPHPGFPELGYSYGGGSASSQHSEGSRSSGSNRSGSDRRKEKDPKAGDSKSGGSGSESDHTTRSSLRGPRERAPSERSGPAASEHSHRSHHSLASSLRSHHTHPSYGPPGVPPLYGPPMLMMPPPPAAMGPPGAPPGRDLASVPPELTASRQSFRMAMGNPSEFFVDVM

binding result (β-catenin): no binding
binding result (disheveled-1 (Dvl-1)): no binding
binding result (disheveled-3 (Dvl-3)): no binding
B1: ATDC (Ataxia-Telangiectasia Group D Complementing Gene, also known as TRIM29), endogenous (other, UniProt Q14134 1-588, looked up)
chain: MEAADASRSNGSSPEARDARSPSGPSGSLENGTKADGKDAKTTNGHGGEAAEGKSLGSALKPGEGRSALFAGNEWRRPIIQFVESGDDKNSNYFSMDSMEGKRSPYAGLQLGAAKKPPVTFAEKGELRKSIFSESRKPTVSIMEPGETRRNSYPRADTGLFSRSKSGSEEVLCDSCIGNKQKAVKSCLVCQASFCELHLKPHLEGAAFRDHQLLEPIRDFEARKCPVHGKTMELFCQTDQTCICYLCMFQEHKNHSTVTVEEAKAEKETELSLQKEQLQLKIIEIEDEAEKWQKEKDRIKSFTTNEKAILEQNFRDLVRDLEKQKEEVRAALEQREQDAVDQVKVIMDALDERAKVLHEDKQTREQLHSISDSVLFLQEFGALMSNYSLPPPLPTYHVLLEGEGLGQSLGNFKDDLLNVCMRHVEKMCKADLSRNFIERNHMENGGDHRYVNNYTNSFGGEWSAPDTMKRYSMYLTPKGGVRTSYQPSSPGRFTKETTQKNFNNLYGTKGNYTSRVWEYSSSIQNSDNDLPVVQGSSSFSLKGYPSLMRSQSPKAQPQTWKSGKQTMLSHYRPFYVNKGNGIGSNEAP
notes: Endogenous protein in lysates of human pancreatic cancer cell lines (BxPC3, Panc-1); also called endogenous ATDC
